Results reported in the supplement of paper PMC9876800.

tested on: peptide library, one residue held at a place counted from the S/T acceptor; assay: relative phosphorylation of the sub-library (ratio to the mean residue at this position); human; higher = residue favoured; conditions: Y fixed; at -2
How it was run: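 Relative sub-library phosphorylation is the ratio of each sub-library's signal to the mean residue at that position. The signal came from phosphorimaging of spots on streptavidin membranes, quantified by densitometry, after purified recombinant kinases reacted with biotinylated degenerate peptide sub-libraries in 384-well plates. Reactions held 50 μM peptide and 50 μM ATP spiked with γ-32P-ATP for 90 min under kinase-specific conditions.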

Chain of TTK, construct: Full length (P33981 whole entry, looked up): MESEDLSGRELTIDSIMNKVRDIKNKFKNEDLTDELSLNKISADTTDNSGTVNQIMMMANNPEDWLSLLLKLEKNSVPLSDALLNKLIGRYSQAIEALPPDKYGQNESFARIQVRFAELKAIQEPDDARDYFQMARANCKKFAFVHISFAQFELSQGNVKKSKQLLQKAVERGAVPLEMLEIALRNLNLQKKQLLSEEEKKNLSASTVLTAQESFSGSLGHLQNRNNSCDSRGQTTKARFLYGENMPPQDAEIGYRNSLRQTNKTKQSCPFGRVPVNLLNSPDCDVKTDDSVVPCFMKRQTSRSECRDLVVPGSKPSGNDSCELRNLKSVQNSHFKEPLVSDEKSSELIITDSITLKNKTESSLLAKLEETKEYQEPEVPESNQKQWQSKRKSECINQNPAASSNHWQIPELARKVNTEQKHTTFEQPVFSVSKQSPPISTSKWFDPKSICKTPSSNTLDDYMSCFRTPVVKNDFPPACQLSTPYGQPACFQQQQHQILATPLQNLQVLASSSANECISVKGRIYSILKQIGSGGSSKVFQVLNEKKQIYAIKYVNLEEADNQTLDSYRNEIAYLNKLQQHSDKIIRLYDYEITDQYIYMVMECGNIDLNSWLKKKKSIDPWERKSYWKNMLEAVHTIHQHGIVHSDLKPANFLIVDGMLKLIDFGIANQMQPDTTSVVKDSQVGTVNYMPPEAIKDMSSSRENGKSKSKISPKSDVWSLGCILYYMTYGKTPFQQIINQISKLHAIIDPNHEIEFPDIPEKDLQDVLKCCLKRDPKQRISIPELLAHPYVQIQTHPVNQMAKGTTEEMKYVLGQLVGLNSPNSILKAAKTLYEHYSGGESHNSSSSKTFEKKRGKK
Chain of PAK3, construct: Full length (O75914 whole entry, looked up): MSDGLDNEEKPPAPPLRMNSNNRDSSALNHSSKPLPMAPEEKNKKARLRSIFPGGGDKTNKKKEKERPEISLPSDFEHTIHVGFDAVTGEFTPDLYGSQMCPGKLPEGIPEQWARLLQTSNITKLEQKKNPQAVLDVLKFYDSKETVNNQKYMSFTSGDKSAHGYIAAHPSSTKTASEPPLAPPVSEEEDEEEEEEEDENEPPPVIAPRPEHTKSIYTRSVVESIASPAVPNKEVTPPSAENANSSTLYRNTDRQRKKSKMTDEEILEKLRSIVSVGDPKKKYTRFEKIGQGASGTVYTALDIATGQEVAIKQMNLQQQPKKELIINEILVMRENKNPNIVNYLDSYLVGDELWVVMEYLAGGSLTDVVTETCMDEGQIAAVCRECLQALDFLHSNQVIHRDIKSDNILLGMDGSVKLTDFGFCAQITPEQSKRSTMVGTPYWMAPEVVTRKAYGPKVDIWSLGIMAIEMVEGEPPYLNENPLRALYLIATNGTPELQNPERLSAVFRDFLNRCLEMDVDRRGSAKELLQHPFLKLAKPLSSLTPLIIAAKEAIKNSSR
Chain of MASTL, construct: Full length (Q96GX5 whole entry, looked up): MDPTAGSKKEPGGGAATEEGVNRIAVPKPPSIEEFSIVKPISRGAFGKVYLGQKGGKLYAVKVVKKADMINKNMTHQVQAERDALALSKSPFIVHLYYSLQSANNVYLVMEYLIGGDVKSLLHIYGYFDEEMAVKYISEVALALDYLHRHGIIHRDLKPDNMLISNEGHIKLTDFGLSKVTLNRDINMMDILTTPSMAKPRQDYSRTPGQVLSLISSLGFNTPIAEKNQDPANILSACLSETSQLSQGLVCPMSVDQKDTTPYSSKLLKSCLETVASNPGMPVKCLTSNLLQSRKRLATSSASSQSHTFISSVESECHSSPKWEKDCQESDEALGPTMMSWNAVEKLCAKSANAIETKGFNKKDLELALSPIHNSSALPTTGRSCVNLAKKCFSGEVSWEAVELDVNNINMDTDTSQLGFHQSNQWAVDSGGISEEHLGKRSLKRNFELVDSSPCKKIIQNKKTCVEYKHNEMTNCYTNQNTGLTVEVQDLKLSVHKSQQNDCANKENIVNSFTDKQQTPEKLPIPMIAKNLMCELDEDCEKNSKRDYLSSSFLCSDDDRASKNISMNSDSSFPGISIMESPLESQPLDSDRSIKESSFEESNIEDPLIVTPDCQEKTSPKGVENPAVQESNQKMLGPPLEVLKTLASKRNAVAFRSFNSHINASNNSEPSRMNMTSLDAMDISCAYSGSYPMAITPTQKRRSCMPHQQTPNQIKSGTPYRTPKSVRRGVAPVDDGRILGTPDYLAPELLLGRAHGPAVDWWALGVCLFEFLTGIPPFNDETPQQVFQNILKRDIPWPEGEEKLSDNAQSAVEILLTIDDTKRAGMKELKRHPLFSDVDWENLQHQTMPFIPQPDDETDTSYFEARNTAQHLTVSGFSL
Chain of RPS6KA6, construct: Full length (Q9UK32 whole entry, looked up): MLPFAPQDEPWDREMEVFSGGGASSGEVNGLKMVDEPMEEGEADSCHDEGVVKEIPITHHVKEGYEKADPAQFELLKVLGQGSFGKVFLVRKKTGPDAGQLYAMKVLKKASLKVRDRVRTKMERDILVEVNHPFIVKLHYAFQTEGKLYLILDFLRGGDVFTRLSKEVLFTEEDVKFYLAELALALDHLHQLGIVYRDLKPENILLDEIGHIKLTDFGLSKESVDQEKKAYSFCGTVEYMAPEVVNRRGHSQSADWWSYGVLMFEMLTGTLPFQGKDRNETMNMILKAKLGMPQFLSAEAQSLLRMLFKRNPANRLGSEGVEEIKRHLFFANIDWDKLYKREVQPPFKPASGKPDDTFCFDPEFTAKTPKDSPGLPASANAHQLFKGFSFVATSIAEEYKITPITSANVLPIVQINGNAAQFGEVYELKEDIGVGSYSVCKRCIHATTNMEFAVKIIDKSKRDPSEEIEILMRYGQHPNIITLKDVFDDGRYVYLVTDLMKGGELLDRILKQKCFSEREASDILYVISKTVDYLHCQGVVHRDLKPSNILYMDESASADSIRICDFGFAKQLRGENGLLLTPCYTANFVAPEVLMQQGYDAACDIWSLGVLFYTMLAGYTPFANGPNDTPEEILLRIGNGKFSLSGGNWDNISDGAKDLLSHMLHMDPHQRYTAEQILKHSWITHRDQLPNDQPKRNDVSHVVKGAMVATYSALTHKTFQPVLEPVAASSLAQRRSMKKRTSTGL
Chain of GRK5, construct: Full length (P34947 whole entry, looked up): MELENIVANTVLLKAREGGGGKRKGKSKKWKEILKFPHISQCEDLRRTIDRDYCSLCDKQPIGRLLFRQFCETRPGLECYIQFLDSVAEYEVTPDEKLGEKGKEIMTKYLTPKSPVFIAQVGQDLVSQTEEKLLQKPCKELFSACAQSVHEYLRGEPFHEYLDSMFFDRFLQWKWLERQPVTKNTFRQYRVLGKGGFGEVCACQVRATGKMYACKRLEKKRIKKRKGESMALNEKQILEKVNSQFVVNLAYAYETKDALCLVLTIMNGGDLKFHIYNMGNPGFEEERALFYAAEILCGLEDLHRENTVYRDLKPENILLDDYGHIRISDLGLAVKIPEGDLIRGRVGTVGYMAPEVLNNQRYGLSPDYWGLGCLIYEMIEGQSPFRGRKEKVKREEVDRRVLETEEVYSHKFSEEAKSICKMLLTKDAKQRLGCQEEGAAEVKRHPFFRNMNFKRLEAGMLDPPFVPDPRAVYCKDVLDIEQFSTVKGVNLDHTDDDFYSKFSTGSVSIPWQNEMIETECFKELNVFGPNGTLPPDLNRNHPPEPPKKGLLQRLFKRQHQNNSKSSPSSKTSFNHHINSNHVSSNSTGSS
Chain of MELK, construct: aa1-340 (Q14680 1-340, looked up): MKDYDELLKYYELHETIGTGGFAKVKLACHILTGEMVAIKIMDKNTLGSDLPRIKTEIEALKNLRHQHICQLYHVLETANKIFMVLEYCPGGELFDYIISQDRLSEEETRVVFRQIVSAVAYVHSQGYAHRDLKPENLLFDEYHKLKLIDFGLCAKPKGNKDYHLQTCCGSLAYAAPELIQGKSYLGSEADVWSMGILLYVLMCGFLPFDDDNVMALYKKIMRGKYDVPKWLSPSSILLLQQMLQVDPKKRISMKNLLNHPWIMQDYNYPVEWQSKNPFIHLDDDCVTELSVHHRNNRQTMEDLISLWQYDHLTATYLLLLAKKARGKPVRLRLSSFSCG
Chain of PRPF4B, construct: aa519-end (Q13523 519-1007, looked up): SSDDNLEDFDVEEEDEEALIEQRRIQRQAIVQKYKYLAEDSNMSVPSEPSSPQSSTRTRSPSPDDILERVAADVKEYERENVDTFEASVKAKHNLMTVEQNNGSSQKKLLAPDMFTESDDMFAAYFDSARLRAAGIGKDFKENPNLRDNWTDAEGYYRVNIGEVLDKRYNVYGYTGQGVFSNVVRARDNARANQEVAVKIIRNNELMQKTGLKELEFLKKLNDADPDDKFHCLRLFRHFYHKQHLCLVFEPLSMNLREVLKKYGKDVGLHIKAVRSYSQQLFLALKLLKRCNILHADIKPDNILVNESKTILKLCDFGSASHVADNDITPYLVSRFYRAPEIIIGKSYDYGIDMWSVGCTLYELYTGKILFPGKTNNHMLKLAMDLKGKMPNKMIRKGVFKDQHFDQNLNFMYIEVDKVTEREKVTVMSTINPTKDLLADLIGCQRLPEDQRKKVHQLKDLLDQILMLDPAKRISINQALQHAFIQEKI
Chain of CLK3, construct: Full length (P49761 whole entry, looked up): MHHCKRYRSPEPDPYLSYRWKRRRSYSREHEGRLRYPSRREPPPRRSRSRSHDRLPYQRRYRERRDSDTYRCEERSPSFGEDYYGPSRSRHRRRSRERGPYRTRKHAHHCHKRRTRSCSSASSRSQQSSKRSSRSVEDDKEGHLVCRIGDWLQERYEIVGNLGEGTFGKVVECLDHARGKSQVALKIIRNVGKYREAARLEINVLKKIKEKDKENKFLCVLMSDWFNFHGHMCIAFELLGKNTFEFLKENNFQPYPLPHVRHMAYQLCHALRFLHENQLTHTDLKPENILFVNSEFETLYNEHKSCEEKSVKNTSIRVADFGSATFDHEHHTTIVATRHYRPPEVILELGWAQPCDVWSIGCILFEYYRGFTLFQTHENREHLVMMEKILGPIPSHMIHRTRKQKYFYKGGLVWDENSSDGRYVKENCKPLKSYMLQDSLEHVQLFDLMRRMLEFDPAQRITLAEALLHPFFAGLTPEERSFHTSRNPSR

Row | Substance | relative phosphorylation
1 | GRK5, construct: Full length (from UniProt P34947) | 1.3
2 | TTK, construct: Full length (from UniProt P33981) | 0.453
3 | PRPF4B, construct: aa519-end (from UniProt Q13523) | 1.04

same assay, conditions: Y fixed; at -3

Row | Substance | relative phosphorylation
4 | PAK3, construct: Full length (from UniProt O75914) | 0.785
5 | MASTL, construct: Full length (from UniProt Q96GX5) | 1.42
6 | MELK, construct: aa1-340 (from UniProt Q14680) | 0.653
7 | CLK3, construct: Full length (from UniProt P49761) | 0.403
8 | RPS6KA6, construct: Full length (from UniProt Q9UK32) | 0.325
9 | GRK5, construct: Full length (from UniProt P34947) | 0.969
10 | TTK, construct: Full length (from UniProt P33981) | 0.734
11 | PRPF4B, construct: aa519-end (from UniProt Q13523) | 0.435

same assay, conditions: Y fixed; at -4

Row | Substance | relative phosphorylation
12 | PAK3, construct: Full length (from UniProt O75914) | 0.89
13 | MASTL, construct: Full length (from UniProt Q96GX5) | 1.49
14 | MELK, construct: aa1-340 (from UniProt Q14680) | 0.831
15 | CLK3, construct: Full length (from UniProt P49761) | 0.704
16 | RPS6KA6, construct: Full length (from UniProt Q9UK32) | 0.676
17 | GRK5, construct: Full length (from UniProt P34947) | 1.08
18 | TTK, construct: Full length (from UniProt P33981) | 0.899
19 | PRPF4B, construct: aa519-end (from UniProt Q13523) | 0.812

same assay, conditions: Y fixed; at -5

Row | Substance | relative phosphorylation
20 | PAK3, construct: Full length (from UniProt O75914) | 0.852
21 | MASTL, construct: Full length (from UniProt Q96GX5) | 1.03
22 | MELK, construct: aa1-340 (from UniProt Q14680) | 0.806
23 | CLK3, construct: Full length (from UniProt P49761) | 0.674
24 | RPS6KA6, construct: Full length (from UniProt Q9UK32) | 0.697
25 | GRK5, construct: Full length (from UniProt P34947) | 1.13
26 | TTK, construct: Full length (from UniProt P33981) | 1.04
27 | PRPF4B, construct: aa519-end (from UniProt Q13523) | 1.31

same assay, conditions: pThr fixed; at +1

Row | Substance | relative phosphorylation
28 | PAK3, construct: Full length (from UniProt O75914) | 0.479
29 | MASTL, construct: Full length (from UniProt Q96GX5) | 1
30 | MELK, construct: aa1-340 (from UniProt Q14680) | 0.647
31 | CLK3, construct: Full length (from UniProt P49761) | 0.887
32 | RPS6KA6, construct: Full length (from UniProt Q9UK32) | 2.29
33 | GRK5, construct: Full length (from UniProt P34947) | 2.07
34 | TTK, construct: Full length (from UniProt P33981) | 0.734
35 | PRPF4B, construct: aa519-end (from UniProt Q13523) | 0.638

same assay, conditions: pThr fixed; at +2

Row | Substance | relative phosphorylation
36 | PAK3, construct: Full length (from UniProt O75914) | 0.471
37 | MASTL, construct: Full length (from UniProt Q96GX5) | 0.912
38 | MELK, construct: aa1-340 (from UniProt Q14680) | 0.364
39 | CLK3, construct: Full length (from UniProt P49761) | 2.44
40 | RPS6KA6, construct: Full length (from UniProt Q9UK32) | 1.05
41 | GRK5, construct: Full length (from UniProt P34947) | 0.82
42 | TTK, construct: Full length (from UniProt P33981) | 0.393
43 | PRPF4B, construct: aa519-end (from UniProt Q13523) | 0.803

same assay, conditions: pThr fixed; at +3

Row | Substance | relative phosphorylation
44 | PAK3, construct: Full length (from UniProt O75914) | 0.632
45 | MASTL, construct: Full length (from UniProt Q96GX5) | 0.984
46 | MELK, construct: aa1-340 (from UniProt Q14680) | 0.33
47 | CLK3, construct: Full length (from UniProt P49761) | 0.951
48 | RPS6KA6, construct: Full length (from UniProt Q9UK32) | 1.56
49 | GRK5, construct: Full length (from UniProt P34947) | 1.27
50 | TTK, construct: Full length (from UniProt P33981) | 0.576
51 | PRPF4B, construct: aa519-end (from UniProt Q13523) | 0.794

same assay, conditions: pThr fixed; at +4

Row | Substance | relative phosphorylation
52 | PAK3, construct: Full length (from UniProt O75914) | 0.99
53 | MASTL, construct: Full length (from UniProt Q96GX5) | 1.27
54 | MELK, construct: aa1-340 (from UniProt Q14680) | 0.662
55 | CLK3, construct: Full length (from UniProt P49761) | 2.16
56 | RPS6KA6, construct: Full length (from UniProt Q9UK32) | 2.31
57 | GRK5, construct: Full length (from UniProt P34947) | 2.47
58 | TTK, construct: Full length (from UniProt P33981) | 0.455
59 | PRPF4B, construct: aa519-end (from UniProt Q13523) | 0.583

same assay, conditions: pThr fixed; at -1

Row | Substance | relative phosphorylation
60 | PAK3, construct: Full length (from UniProt O75914) | 0.367
61 | MASTL, construct: Full length (from UniProt Q96GX5) | 0.833
62 | MELK, construct: aa1-340 (from UniProt Q14680) | 0.311
63 | CLK3, construct: Full length (from UniProt P49761) | 0.555
64 | RPS6KA6, construct: Full length (from UniProt Q9UK32) | 0.471
65 | GRK5, construct: Full length (from UniProt P34947) | 0.587
66 | TTK, construct: Full length (from UniProt P33981) | 0.7
67 | PRPF4B, construct: aa519-end (from UniProt Q13523) | 0.68

same assay, conditions: pThr fixed; at -2

Row | Substance | relative phosphorylation
68 | PAK3, construct: Full length (from UniProt O75914) | 0.411
69 | MASTL, construct: Full length (from UniProt Q96GX5) | 0.827
70 | MELK, construct: aa1-340 (from UniProt Q14680) | 0.354
71 | CLK3, construct: Full length (from UniProt P49761) | 0.817
72 | RPS6KA6, construct: Full length (from UniProt Q9UK32) | 0.51
73 | GRK5, construct: Full length (from UniProt P34947) | 1.43
74 | TTK, construct: Full length (from UniProt P33981) | 1.12
75 | PRPF4B, construct: aa519-end (from UniProt Q13523) | 0.828

same assay, conditions: pThr fixed; at -3

Row | Substance | relative phosphorylation
76 | PAK3, construct: Full length (from UniProt O75914) | 0.546
77 | MASTL, construct: Full length (from UniProt Q96GX5) | 0.939
78 | MELK, construct: aa1-340 (from UniProt Q14680) | 0.33
79 | CLK3, construct: Full length (from UniProt P49761) | 1.05
80 | RPS6KA6, construct: Full length (from UniProt Q9UK32) | 0.399
81 | GRK5, construct: Full length (from UniProt P34947) | 2.65
82 | TTK, construct: Full length (from UniProt P33981) | 1.75
83 | PRPF4B, construct: aa519-end (from UniProt Q13523) | 0.697

same assay, conditions: pThr fixed; at -4

Row | Substance | relative phosphorylation
84 | PAK3, construct: Full length (from UniProt O75914) | 0.754
85 | MASTL, construct: Full length (from UniProt Q96GX5) | 0.844
